Assay results as given in IntAct's records for PubMed 28065597.

B1: Receptor tyrosine-protein kinase erbB-4 (Homo sapiens), Q15303 (parent)
chain: MKPATGLWVWVSLLVAAGTVQPSDSQSVCAGTENKLSSLSDLEQQYRALRKYYENCEVVMGNLEITSIEHNRDLSFLRSVREVTGYVLVALNQFRYLPLENLRIIRGTKLYEDRYALAIFLNYRKDGNFGLQELGLKNLTEILNGGVYVDQNKFLCYADTIHWQDIVRNPWPSNLTLVSTNGSSGCGRCHKSCTGRCWGPTENHCQTLTRTVCAEQCDGRCYGPYVSDCCHRECAGGCSGPKDTDCFACMNFNDSGACVTQCPQTFVYNPTTFQLEHNFNAKYTYGAFCVKKCPHNFVVDSSSCVRACPSSKMEVEENGIKMCKPCTDICPKACDGIGTGSLMSAQTVDSSNIDKFINCTKINGNLIFLVTGIHGDPYNAIEAIDPEKLNVFRTVREITGFLNIQSWPPNMTDFSVFSNLVTIGGRVLYSGLSLLILKQQGITSLQFQSLKEISAGNIYITDNSNLCYYHTINWTTLFSTINQRIVIRDNRKAENCTAEGMVCNHLCSSDGCWGPGPDQCLSCRRFSRGRICIESCNLYDGEFREFENGSICVECDPQCEKMEDGLLTCHGPGPDNCTKCSHFKDGPNCVEKCPDGLQGANSFIFKYADPDRECHPCHPNCTQGCNGPTSHDCIYYPWTGHSTLPQHARTPLIAAGVIGGLFILVIVGLTFAVYVRRKSIKKKRALRRFLETELVEPLTPSGTAPNQAQLRILKETELKRVKVLGSGAFGTVYKGIWVPEGETVKIPVAIKILNETTGPKANVEFMDEALIMASMDHPHLVRLLGVCLSPTIQLVTQLMPHGCLLEYVHEHKDNIGSQLLLNWCVQIAKGMMYLEERRLVHRDLAARNVLVKSPNHVKITDFGLARLLEGDEKEYNADGGKMPIKWMALECIHYRKFTHQSDVWSYGVTIWELMTFGGKPYDGIPTREIPDLLEKGERLPQPPICTIDVYMVMVKCWMIDADSRPKFKELAAEFSRMARDPQRYLVIQGDDRMKLPSPNDSKFFQNLLDEEDLEDMMDAEEYLVPQAFNIPPPIYTSRARIDSNRSEIGHSPPPAYTPMSGNQFVYRDGGFAAEQGVSVPYRAPTSTIPEAPVAQGATAEIFDDSCCNGTLRKPVAPHVQEDSSTQRYSADPTVFAPERSPRGELDEEGYMTPMRDKPKQEYLNPVEENPFVSRRKNGDLQALDNPEYHNASNGPPKAEDEYVNEPLYLNTFANTLGKAEYLKNNILSMPEKAKKAFDNPDYWNHSLPPRSTLQHPDYLQEYSTKYFYKQNGRIRPIVAENPEYLSEFSLKPGTVLPPPPYRHRNTVV
partner: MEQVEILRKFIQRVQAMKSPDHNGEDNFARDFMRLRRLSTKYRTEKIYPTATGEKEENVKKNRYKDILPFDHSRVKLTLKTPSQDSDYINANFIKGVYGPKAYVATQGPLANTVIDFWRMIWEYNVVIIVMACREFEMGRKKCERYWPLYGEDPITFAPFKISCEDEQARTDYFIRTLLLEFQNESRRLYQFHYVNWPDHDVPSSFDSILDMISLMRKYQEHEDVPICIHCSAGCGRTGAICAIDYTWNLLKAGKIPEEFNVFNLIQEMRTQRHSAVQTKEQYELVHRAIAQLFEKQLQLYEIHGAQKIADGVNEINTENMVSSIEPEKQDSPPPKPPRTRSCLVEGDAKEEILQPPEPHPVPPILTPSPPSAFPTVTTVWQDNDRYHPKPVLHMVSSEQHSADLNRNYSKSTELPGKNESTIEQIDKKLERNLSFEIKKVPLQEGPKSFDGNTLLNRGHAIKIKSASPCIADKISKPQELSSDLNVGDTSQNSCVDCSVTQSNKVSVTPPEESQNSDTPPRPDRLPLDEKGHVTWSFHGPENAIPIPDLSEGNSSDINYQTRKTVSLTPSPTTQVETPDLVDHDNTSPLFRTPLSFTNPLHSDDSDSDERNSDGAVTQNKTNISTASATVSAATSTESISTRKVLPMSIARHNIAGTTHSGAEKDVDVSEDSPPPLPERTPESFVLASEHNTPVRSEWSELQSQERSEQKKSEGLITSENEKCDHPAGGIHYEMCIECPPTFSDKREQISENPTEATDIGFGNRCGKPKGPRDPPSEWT
B2: Tyrosine-protein phosphatase non-receptor type 12 (Homo sapiens), Q05209 (parent)
chain: B1 partner
B3: Receptor tyrosine-protein kinase erbB-4 (Homo sapiens), Q15303 (parent)
chain: B1 chain
partner: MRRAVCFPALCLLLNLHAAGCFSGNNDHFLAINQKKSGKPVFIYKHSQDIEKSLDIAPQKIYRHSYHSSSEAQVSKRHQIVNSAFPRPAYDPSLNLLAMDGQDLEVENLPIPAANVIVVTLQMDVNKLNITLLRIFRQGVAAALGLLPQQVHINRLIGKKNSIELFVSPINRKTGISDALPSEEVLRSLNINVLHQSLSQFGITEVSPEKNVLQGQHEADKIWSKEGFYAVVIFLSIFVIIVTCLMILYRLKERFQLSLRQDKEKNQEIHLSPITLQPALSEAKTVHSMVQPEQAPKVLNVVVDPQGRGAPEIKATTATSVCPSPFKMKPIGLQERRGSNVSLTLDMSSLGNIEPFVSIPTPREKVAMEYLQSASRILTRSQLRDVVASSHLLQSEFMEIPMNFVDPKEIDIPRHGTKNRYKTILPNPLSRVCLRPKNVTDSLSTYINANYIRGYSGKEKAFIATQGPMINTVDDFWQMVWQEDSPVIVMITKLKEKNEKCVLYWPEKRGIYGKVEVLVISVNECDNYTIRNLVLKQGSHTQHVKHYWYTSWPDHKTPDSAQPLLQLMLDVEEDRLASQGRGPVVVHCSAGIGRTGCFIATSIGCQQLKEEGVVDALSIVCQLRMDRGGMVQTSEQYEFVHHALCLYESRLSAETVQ
B4: Receptor-type tyrosine-protein phosphatase R (Homo sapiens), Q15256 (parent)
chain: B3 partner

Variants of: B1
Conditions: with ptn12_human PTPN12, Q05209

Variant | effect of a mutation on the interaction
D843N | with no effect

Variants of: B1
Conditions: with ptn12_human PTPN12, Q05209
Remark: another data set of the same source

Variant | effect of a mutation on the interaction
D843N | increasing interaction

Variants of: B2
Conditions: with erbb4_human ERBB4, Q15303

Variant | effect of a mutation on the interaction
C231S | with no effect
D199A;C231S | disrupting interaction

Variants of: B2
Conditions: with erbb4_human ERBB4, Q15303
Remark: another data set of the same source

Variant | effect of a mutation on the interaction
C231S | disrupting interaction

Variants of: B2
Conditions: with fgfr2_human FGFR2, P21802
Target sequence in this assay (P21802 whole entry, looked up): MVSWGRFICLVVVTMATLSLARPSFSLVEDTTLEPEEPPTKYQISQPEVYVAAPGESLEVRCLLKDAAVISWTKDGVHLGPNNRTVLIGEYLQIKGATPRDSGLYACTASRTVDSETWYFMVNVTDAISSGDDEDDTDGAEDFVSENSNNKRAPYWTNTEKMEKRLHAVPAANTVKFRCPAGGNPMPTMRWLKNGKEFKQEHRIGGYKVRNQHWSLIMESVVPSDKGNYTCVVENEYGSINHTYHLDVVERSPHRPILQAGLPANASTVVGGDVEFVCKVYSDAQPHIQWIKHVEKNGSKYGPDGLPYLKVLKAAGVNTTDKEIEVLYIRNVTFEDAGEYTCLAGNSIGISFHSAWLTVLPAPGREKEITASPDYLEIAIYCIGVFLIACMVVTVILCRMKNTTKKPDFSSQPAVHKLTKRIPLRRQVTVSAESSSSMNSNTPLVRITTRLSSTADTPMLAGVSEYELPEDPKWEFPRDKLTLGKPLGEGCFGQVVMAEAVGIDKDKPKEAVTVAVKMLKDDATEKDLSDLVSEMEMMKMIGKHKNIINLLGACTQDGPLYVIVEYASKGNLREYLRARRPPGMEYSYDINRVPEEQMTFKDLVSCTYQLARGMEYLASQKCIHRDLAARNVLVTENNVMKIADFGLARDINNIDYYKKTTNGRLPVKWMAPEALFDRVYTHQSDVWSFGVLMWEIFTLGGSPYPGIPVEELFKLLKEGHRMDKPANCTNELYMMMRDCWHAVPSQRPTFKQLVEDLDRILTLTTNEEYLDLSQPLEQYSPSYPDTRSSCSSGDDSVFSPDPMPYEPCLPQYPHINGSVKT

Variant | effect of a mutation on the interaction
C231S | disrupting interaction
D199A;C231S | disrupting interaction

Variants of: B2
Conditions: with fgfr4_human FGFR4, P22455

Variant | effect of a mutation on the interaction
C231S | increasing interaction

Variants of: B2
Conditions: with vgfr2_human KDR
Target sequence in this assay (P35968 whole entry): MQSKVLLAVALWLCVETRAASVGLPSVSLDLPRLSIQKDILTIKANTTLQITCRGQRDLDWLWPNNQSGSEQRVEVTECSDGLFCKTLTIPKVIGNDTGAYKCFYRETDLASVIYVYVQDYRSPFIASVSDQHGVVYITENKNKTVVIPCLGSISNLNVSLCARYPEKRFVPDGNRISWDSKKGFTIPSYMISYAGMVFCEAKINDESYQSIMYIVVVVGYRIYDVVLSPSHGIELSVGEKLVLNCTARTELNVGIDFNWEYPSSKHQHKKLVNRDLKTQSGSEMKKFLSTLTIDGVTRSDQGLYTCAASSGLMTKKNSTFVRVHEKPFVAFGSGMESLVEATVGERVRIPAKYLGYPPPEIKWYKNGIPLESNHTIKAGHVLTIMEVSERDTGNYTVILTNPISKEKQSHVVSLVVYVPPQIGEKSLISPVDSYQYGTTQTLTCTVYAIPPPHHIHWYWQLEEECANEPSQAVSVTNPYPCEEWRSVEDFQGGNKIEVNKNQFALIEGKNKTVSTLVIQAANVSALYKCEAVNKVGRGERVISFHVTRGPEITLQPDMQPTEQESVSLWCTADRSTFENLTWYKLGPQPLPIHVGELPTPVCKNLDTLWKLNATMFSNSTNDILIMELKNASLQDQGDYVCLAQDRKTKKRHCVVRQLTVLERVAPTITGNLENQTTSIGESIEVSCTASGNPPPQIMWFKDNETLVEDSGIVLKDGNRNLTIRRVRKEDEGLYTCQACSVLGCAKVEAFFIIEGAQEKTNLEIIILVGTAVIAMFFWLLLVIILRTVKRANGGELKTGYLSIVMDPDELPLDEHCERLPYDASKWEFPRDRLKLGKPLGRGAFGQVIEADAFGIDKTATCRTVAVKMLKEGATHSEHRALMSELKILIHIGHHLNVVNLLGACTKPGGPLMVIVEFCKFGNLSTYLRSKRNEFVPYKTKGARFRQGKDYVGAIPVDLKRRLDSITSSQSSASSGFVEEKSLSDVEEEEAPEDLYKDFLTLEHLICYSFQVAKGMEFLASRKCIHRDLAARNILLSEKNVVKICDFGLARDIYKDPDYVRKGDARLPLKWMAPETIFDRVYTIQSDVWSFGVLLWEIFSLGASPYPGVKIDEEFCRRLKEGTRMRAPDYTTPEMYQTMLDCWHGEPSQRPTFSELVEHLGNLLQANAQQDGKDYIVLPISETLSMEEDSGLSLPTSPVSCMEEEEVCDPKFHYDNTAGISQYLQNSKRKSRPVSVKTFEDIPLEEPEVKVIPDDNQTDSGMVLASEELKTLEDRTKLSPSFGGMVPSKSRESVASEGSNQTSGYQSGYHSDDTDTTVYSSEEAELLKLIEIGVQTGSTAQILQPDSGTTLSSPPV

Variant | effect of a mutation on the interaction
C231S | with no effect
D199A;C231S | with no effect

Variants of: B2
Conditions: with igf1r_human IGF1R
Target sequence in this assay (P08069 whole entry, looked up): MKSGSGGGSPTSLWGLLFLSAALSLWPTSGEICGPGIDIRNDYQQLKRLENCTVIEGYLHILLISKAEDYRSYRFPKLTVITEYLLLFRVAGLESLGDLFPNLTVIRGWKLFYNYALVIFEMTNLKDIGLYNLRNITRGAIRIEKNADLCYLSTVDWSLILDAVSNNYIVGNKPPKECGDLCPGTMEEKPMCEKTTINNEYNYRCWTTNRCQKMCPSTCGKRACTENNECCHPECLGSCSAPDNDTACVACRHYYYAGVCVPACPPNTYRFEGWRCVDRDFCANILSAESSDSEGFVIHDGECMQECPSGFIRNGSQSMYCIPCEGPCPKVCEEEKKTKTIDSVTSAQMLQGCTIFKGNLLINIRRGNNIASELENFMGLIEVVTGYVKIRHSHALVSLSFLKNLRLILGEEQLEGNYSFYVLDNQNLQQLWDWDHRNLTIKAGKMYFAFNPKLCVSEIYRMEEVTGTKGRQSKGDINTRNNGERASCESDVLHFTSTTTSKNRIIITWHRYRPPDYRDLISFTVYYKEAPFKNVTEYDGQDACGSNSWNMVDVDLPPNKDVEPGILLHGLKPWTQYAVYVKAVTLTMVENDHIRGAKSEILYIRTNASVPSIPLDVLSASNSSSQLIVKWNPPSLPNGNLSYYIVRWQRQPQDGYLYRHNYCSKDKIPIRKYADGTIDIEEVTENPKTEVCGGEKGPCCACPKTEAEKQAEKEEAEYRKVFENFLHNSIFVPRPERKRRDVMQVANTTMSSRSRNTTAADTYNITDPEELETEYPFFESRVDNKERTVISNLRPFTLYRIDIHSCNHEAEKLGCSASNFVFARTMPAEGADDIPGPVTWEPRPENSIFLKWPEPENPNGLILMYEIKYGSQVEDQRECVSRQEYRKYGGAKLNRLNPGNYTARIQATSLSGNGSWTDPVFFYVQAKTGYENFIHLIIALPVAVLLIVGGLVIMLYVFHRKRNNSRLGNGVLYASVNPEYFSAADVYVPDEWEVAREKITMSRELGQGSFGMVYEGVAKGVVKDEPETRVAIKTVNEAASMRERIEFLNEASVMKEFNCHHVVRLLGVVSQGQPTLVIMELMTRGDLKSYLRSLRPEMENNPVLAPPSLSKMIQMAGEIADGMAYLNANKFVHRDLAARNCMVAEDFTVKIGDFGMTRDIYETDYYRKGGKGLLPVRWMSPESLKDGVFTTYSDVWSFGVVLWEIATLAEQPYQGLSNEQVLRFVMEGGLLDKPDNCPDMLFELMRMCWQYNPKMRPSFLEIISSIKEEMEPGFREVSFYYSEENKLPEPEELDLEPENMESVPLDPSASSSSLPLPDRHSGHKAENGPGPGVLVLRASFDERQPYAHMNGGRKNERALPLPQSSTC

Variant | effect of a mutation on the interaction
C231S | increasing interaction
D199A;C231S | disrupting interaction

Variants of: B2
Conditions: with igf1r_human IGF1R
Remark: another data set of the same source
Target sequence in this assay (P08069 whole entry, looked up): as above

Variant | effect of a mutation on the interaction
C235S | decreasing interaction
D201A;C235S | with no effect

Variants of: B3
Conditions: with ptprr_human PTPRR, Q15256

Variant | effect of a mutation on the interaction
D843N | with no effect

Variants of: B4
Conditions: with erbb4_human ERBB4, Q15303

Variant | effect of a mutation on the interaction
D554A;C588S | with no effect

Variants of: B4
Conditions: with ret_human RET

Variant | effect of a mutation on the interaction
D554A;C588S | with no effect

Variants of: B4
Conditions: with igf1r_human IGF1R
Target sequence in this assay (P08069 whole entry, looked up): as above

Variant | effect of a mutation on the interaction
D554A;C588S | decreasing interaction

Variants of: B4
Conditions: with ret_human RET
Remark: another data set of the same source

Variant | effect of a mutation on the interaction
D554A;C588S | disrupting interaction

Variants of: B4
Conditions: with ron_mouse Mst1r, Q62190
Sequence of ron_mouse Mst1r, Q62190 (Q62190 whole entry): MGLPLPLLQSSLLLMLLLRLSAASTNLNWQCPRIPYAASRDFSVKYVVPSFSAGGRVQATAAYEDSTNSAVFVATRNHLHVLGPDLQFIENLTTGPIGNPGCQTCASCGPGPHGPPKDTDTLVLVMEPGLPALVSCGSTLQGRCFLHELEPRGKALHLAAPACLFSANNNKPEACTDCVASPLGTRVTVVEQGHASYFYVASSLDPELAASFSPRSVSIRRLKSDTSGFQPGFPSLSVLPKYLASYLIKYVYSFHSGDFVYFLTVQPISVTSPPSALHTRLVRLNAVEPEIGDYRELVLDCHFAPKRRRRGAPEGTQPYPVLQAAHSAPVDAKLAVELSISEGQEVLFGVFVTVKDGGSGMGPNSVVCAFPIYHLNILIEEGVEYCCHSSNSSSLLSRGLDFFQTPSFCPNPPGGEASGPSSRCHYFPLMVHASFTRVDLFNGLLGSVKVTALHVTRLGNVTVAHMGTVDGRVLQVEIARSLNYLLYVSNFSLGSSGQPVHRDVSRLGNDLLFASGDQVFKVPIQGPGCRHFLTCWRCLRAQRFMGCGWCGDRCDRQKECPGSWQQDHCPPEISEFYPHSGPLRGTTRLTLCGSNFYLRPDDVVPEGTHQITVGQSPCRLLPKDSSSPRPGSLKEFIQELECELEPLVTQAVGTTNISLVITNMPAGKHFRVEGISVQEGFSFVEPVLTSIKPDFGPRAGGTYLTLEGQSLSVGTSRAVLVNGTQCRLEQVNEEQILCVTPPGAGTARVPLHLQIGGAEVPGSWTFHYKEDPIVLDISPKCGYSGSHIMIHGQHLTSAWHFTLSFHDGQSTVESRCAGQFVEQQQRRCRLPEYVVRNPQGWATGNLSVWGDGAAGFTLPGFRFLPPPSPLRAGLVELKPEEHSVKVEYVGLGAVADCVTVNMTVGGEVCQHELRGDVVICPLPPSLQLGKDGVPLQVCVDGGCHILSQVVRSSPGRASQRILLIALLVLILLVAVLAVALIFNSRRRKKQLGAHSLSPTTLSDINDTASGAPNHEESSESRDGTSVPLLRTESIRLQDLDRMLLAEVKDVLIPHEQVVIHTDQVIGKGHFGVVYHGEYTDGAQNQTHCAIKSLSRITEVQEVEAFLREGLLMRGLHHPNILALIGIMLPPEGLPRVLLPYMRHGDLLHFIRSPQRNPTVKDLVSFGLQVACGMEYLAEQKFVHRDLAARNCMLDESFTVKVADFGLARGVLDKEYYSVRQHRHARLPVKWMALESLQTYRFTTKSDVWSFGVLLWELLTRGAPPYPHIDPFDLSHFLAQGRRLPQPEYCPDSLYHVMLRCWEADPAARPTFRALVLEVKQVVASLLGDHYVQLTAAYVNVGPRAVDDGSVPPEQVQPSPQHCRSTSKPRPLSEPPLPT

Variant | effect of a mutation on the interaction
D554A;C588S | disrupting interaction

Variants of: B4
Conditions: with ntrk1_human NTRK1, P04629

Variant | effect of a mutation on the interaction
D554A;C588S | with no effect

Variants of: B4
Conditions: with tie2_human TEK

Variant | effect of a mutation on the interaction
D554A;C588S | decreasing interaction

Variants of: B4
Conditions: with ron_mouse Mst1r

Variant | effect of a mutation on the interaction
D554A;C588S | increasing interaction

Variants of: B4
Conditions: with fgfr2_human FGFR2, P21802
Target sequence in this assay (P21802 whole entry, looked up): as the sequence (P21802 whole entry, looked up) above

Variant | effect of a mutation on the interaction
D554A;C588S | decreasing interaction

Variants of: B4
Conditions: with fgfr4_human FGFR4, P22455

Variant | effect of a mutation on the interaction
D554A;C588S | decreasing interaction

Variants of: B4
Conditions: with vgfr2_human KDR
Target sequence in this assay (P35968 whole entry): as the sequence (P35968 whole entry) above

Variant | effect of a mutation on the interaction
D554A;C588S | with no effect

Variants of: B4
Conditions: with igf1r_human IGF1R
Remark: another data set of the same source
Target sequence in this assay (P08069 whole entry, looked up): as the sequence (P08069 whole entry, looked up) above

Variant | effect of a mutation on the interaction
D554A;C588S | with no effect
